From US20110294748A1 (Janssen / Centocor, published 2011) come the findings set out here.

The target in the test is T1, soluble IGF1R (sIGF1R), extracellular domain of human insulin-like growth factor 1 receptor, carboxy-terminal … (human, UniProt P08069 31-932).
T1 construct: Bought from R&D Systems; GenBank NP-000866 is printed for the whole receptor; also called IFG1R
As to the kind of experiment: ELISA, serially diluted PG-peptide fusion on coated sIGF1R. Here is the method: Relative binding affinities of the PG-peptide fusions for sIGF1R were measured using ELISA. The Kds were determined using GraphPad Prism 4 software with a one site binding equation. 100 μl of 2 μg/ml sIGF1R(R&D Systems, Minneapolis, Minn.) in Dulbecco's Phosphate Buffer Saline (DPBS (−/−)) was coated onto a 96 well Black Maxisorp plates (Nunc, Rochester, N.Y.) overnight at 4° C. The plates were washed with TBST and the wells blocked with 200 μl/well Starting Block T20 (TBS) (Pierce, Rockford, Ill.) for 1 hr, room temperature with 300 rpm shaking. 75 μl/well of purified, serially diluted PG-peptide fusions, starting concentration 40 μM, was added into the wells and incubated for 1 h, room temperature with 300 rpm mixing; the volume was brought up to 100 μl with Starting Block T20. The plates were washed 3× with TBST and then probed with 100 μl/well Peroxidase labeled-Rabbit antibody (1:5000) (Rockland, Gilbertsville, Pa.), washed, and the signal was detected using 100 μl/well POD substrate (Roche, Indianapolis, Ind.). Chemiluminescence was detected using a Molecular Devices M5 plate reader.
The fusion protein with peptide clone 17 was unique in its binding profile in that the binding curve was bellshaped. […]

B1: PG-peptide fusion of clone 17 (protein G IgG domain with peptide SEQ ID NO: 13 at its C-terminus) (other)
chain: YKLILNGKTLKGETTTEAVDAATAEKVFKQYANDNGVDGEWTYDDATKTFTVTEDDIDEFLHQLHNLVNNVH
notes: also called PG-peptide fusion clone 17; fusion protein with peptide clone 17
For B1, the binding result is reported as “binds”.
